From CN116284368A

T1: 临床全血样本裂解液中的MxA蛋白 (human) (UniProt P20591)
T1 sequence (looked up): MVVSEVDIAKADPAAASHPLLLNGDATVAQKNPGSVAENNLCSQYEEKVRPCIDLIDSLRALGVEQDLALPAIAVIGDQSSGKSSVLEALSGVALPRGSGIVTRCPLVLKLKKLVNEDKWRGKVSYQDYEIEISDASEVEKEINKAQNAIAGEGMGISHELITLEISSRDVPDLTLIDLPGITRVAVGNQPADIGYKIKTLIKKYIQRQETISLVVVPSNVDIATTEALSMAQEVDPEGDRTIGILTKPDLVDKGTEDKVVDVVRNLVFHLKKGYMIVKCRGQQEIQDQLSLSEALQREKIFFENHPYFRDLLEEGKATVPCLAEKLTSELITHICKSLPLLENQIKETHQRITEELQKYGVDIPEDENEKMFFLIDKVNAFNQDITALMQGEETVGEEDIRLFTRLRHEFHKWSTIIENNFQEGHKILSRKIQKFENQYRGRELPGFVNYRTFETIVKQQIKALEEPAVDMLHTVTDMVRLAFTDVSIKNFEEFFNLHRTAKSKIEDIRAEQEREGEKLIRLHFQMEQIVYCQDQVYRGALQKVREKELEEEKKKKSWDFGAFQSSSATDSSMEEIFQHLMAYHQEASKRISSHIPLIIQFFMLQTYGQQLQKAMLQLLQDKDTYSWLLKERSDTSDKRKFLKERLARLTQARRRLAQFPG


Molecular target: T1, 临床全血样本裂解液中的MxA蛋白 (human)
Test: sandwich ELISA on clinical whole-blood lysates, antibody A coated (capture), antibody B-HRP detection

OD450 [OD450]	Binder
> 0.6	抗体A (MxA-A抗体) (antibody, V domains shown) VH: EVQLVETGGGLVQPKGSLIVSCAASGFTFNRSAMNWVRQAPGKGLEWVARIRTKSNNYATYYADSVKDRFTISRDDSQSMLYLQMNNLKTEDTAMYYCVGGSDFAYWGQGTLVTVSA VL: DIQMTQTTSSLSASLGDRVTISCRASQDISNYLNWFQQKPDGTVKLLIYYTSRLYSGVPSRFSGSGSGTDYSLTITNLEQEDIATYFCQQGNTLPLTFGAGTKLELK
> 0.6	抗体B (MxA-B抗体) (antibody, V domains shown) VH: QVQLQQSGAELARPGASVKLSCKASGYTFTSYWILWLKQRPGQGLEWIGAVYPGDGDTRYTQKFKGKATLTADKSSSTAYMQLSSLASEDSAVYYCARGYDNSFDYWGQGTTLTVSS VL: DVLMTQTPLSLPVSLGDQASISCRTSQTIVHSNGNTYLEWYLQKPGQSPKLLIYKVSNRFSGVPDRFSGSGSGTDFTLKISRVEAEDLGVYYCFQGSHVPPTFGAGTKLELK
